In the supplement of paper PMC10567573 one finds protein stability index data, which are given here for 94 variants.

B1: KLHL12 (parent)
chain: LDYTADEDGVWYSVAPMNVRRGLA
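Note: lentivirally expressed fusions sorted by FACS into six bins by GFP to DsRed ratio, PSI derived from sequencing read proportions per bin multiplied by bin number.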

Variants of B1 are the subject of this data set. Put plainly: protein stability index of a GFP-peptide fusion (GPS, HEK-293T) (PSI 1-6); higher = more stable. The following applies: c terminus: a fixed tail appended.
As to LDYTADEDGVWQSVAPMNVRRGLA, the protein stability index is 3.61.

On to LDYTADEDGVWMSVAPMNVRRGLA, for which the protein stability index was 2.36.

Consider LDYTADEDLVWYSVAPMNVRRGLA, for which the protein stability index is 1.61.

Regarding LDYTADEDHVWYSVAPMNVRRGLA, the protein stability index came out at 2.2.

On to LDYTADEDWVWYSVAPMNVRRGLA, for which the protein stability index was found to be 1.94.

As to EDYTADEDGVWYSVAPMNVRRGLA, the protein stability index was found to be 3.53.

For WDYTADEDGVWYSVAPMNVRRGLA, the protein stability index was determined as 2.53.

Regarding QDYTADEDGVWYSVAPMNVRRGLA, the protein stability index was found to be 4.

On to KDYTADEDGVWYSVAPMNVRRGLA, for which the protein stability index was 2.75.

Consider ADYTADEDGVWYSVAPMNVRRGLA, for which the protein stability index amounted to 3.26.

With HDYTADEDGVWYSVAPMNVRRGLA, the protein stability index stood at 2.67.

In the case of YDYTADEDGVWYSVAPMNVRRGLA, the protein stability index came out at 2.32.

Regarding RDYTADEDGVWYSVAPMNVRRGLA, the protein stability index was determined as 2.99.

For LDYTADEDGVWYSVFPMNVRRGLA, the protein stability index was determined as 1.82.

In the case of LDYTADEDGVWYSVSPMNVRRGLA, the protein stability index was 1.83.

For the variant LDYTADEDGVWYSVKPMNVRRGLA, the protein stability index came to 2.13.

On to LDYTADEDGVWYSVEPMNVRRGLA, for which the protein stability index is 2.29.

For LDYTADEDGVWYSVRPMNVRRGLA, the protein stability index worked out at 2.19.

Regarding LDYTADEDGVWYSVGPMNVRRGLA, the protein stability index came to 2.06.

For the variant LDYTADEDGVWYSVVPMNVRRGLA, the protein stability index amounted to 1.76.

Take LDYTADEDGVWYSVLPMNVRRGLA: the protein stability index is 2.08.

Take LDYTADEDGVWYSVAPMNVRRGLL: the protein stability index was found to be 2.77.

LDYTADEDGVWYSVAPMNVRRGLN: the protein stability index was 2.25.

Regarding LDYTADEDGVWYSVAPMNVRRGLE, the protein stability index turned out to be 1.87.

For the variant LDYTADEDGVWYSVAPMNVRRGLF, the protein stability index was 2.2.

Take LDYTADEDGVWYSVAPMNVRRGLV: the protein stability index is 2.26.

Take LDYTADEDGVWYSVAPMNVRRGLS: the protein stability index was determined as 2.17.

Regarding LDYTADEDGVWYSVAPMNVRRGLG, the protein stability index was 2.17.

LDYTADEDGVWYSVAPMNVRRGLP: the protein stability index is 2.24.

Regarding LDYTADEDGVWYSVAPMNVRRGLT, the protein stability index is 2.11.

For the variant LDYTADEDGVWYSVAPMNVRTGLA, the protein stability index stood at 2.72.

As for LDYTADEDGVWYSVAPMNVRHGLA, the protein stability index was determined as 1.75.

For LDYTADEDGVWYSVAPMNVRFGLA, the protein stability index stood at 2.85.

Regarding LDYTADEDGVWYSVAPMNVRLGLA, the protein stability index came to 2.93.

For the variant LDYTADEDGVWYSVAPMNVRQGLA, the protein stability index came out at 1.71.

For the variant LDYTADEDGVWYSVAPMNVRKGLA, the protein stability index amounted to 1.8.

In the case of LDYTADEDGVWYSVAPMNVRVGLA, the protein stability index stood at 2.19.

For LDYTADEDGVWYSVAPMNVREGLA, the protein stability index came to 2.21.

As for LDYTADEDGVWYSVAPMNVRGGLA, the protein stability index was determined as 1.78.

LDYTADEDGVWYSTAPMNVRRGLA: the protein stability index worked out at 3.

LDYTADEDGVWYSMAPMNVRRGLA: the protein stability index was found to be 2.33.

For the variant LDYTADEDGVWYSYAPMNVRRGLA, the protein stability index worked out at 2.83.

Turning to LDYTADEDGVWYSNAPMNVRRGLA, the protein stability index was found to be 2.83.

Regarding LDYTADEDGVWYSHAPMNVRRGLA, the protein stability index is 3.39.

Take LDYTADEDGVWYSFAPMNVRRGLA: the protein stability index worked out at 2.18.

Consider LDYTADEDGVWYSRAPMNVRRGLA, for which the protein stability index came to 3.33.

On to LDYTADEDGVWYSEAPMNVRRGLA, for which the protein stability index was determined as 3.61.

On to LDYTADEDGVWYDVAPMNVRRGLA, for which the protein stability index turned out to be 3.34.

Regarding LDYTADEDGVWYGVAPMNVRRGLA, the protein stability index was 2.69.

Turning to LDYTADEDGVWYTVAPMNVRRGLA, the protein stability index is 1.92.

For the variant LDYTADEDGVWYYVAPMNVRRGLA, the protein stability index is 2.21.

As for LDYTADEDGVWYWVAPMNVRRGLA, the protein stability index came to 1.37.

Consider LDYTADEDGVWYHVAPMNVRRGLA, for which the protein stability index amounted to 3.65.

As to LDYTADEDGVWYKVAPMNVRRGLA, the protein stability index was 2.29.

With LDYTADEDGVWYNVAPMNVRRGLA, the protein stability index was found to be 2.13.

Take LDYTADEDGVWYAVAPMNVRRGLA: the protein stability index came out at 1.71.

Regarding LDYTADEDGVWYVVAPMNVRRGLA, the protein stability index stood at 2.28.

Consider LDYTADEPGVWYSVAPMNVRRGLA, for which the protein stability index is 2.26.

Regarding LDYTADEKGVWYSVAPMNVRRGLA, the protein stability index turned out to be 2.24.

Turning to LDYTADECGVWYSVAPMNVRRGLA, the protein stability index came out at 2.81.

On to LDYTADEHGVWYSVAPMNVRRGLA, for which the protein stability index was 1.82.

As for LDYTADETGVWYSVAPMNVRRGLA, the protein stability index worked out at 1.48.

With LDYTADESGVWYSVAPMNVRRGLA, the protein stability index came to 2.69.

For LDYTADEIGVWYSVAPMNVRRGLA, the protein stability index is 1.96.

As to LDYTADEGGVWYSVAPMNVRRGLA, the protein stability index was 1.74.

Consider LEYTADEDGVWYSVAPMNVRRGLA, for which the protein stability index worked out at 1.76.

With LSYTADEDGVWYSVAPMNVRRGLA, the protein stability index amounted to 1.84.

As to LIYTADEDGVWYSVAPMNVRRGLA, the protein stability index worked out at 1.37.

As for LQYTADEDGVWYSVAPMNVRRGLA, the protein stability index stood at 1.47.

Take LNYTADEDGVWYSVAPMNVRRGLA: the protein stability index stood at 1.74.

For the variant LWYTADEDGVWYSVAPMNVRRGLA, the protein stability index was determined as 2.19.

On to LTYTADEDGVWYSVAPMNVRRGLA, for which the protein stability index turned out to be 1.49.

On to LLYTADEDGVWYSVAPMNVRRGLA, for which the protein stability index was determined as 1.55.

For LYYTADEDGVWYSVAPMNVRRGLA, the protein stability index came out at 2.43.

Turning to LDYTADEDGCWYSVAPMNVRRGLA, the protein stability index was 2.44.

LDYTADEDGNWYSVAPMNVRRGLA: the protein stability index was found to be 3.06.

As for LDYTADEDGDWYSVAPMNVRRGLA, the protein stability index was 3.36.

With LDYTADEDGYWYSVAPMNVRRGLA, the protein stability index came out at 2.44.

LDYTADEDGQWYSVAPMNVRRGLA: the protein stability index turned out to be 2.99.

Take LDYTADEDGKWYSVAPMNVRRGLA: the protein stability index worked out at 3.18.

Regarding LDYTADEDGIWYSVAPMNVRRGLA, the protein stability index amounted to 1.84.

Regarding LDYTADEDGVWYSVAPMNHRRGLA, the protein stability index was determined as 2.98.

On to LDYTADEDGVWYSVAPMNMRRGLA, for which the protein stability index amounted to 1.52.

Take LDYTADEDGVWYSVAPMNTRRGLA: the protein stability index was found to be 1.91.

For the variant LDYTADEDGVWYSVAPMNRRRGLA, the protein stability index was found to be 2.61.

Regarding LDYTADEDGVWYSVAPMNARRGLA, the protein stability index was found to be 1.93.

For LDYTADEDGVWYSVAPMNNRRGLA, the protein stability index came out at 2.72.

On to LDYTADEDGVWYSVAPMNERRGLA, for which the protein stability index was found to be 1.86.

Turning to LDYTADEDGVWYSVAPMNFRRGLA, the protein stability index turned out to be 1.78.

Consider LDYTADEDGVWYSVAPMNVCRGLA, for which the protein stability index is 1.54.

On to LDYTADEDGVWYSVAPMNVPRGLA, for which the protein stability index came out at 1.81.

On to LDYTADEDGVWYSVAPMNVERGLA, for which the protein stability index is 3.32.

On to LDYTADEDGVWYSVAPMNVMRGLA, for which the protein stability index came to 2.4.

Take LDYTADEDGVWYSVAPMNVVRGLA: the protein stability index amounted to 2.49.
